# Experimental data: US20240270865A1 (INNATE PHARMA, published 2024)
# T1: human CD73 expressed on cells (human, UniProt P21589 27-549)
# T1 sequence: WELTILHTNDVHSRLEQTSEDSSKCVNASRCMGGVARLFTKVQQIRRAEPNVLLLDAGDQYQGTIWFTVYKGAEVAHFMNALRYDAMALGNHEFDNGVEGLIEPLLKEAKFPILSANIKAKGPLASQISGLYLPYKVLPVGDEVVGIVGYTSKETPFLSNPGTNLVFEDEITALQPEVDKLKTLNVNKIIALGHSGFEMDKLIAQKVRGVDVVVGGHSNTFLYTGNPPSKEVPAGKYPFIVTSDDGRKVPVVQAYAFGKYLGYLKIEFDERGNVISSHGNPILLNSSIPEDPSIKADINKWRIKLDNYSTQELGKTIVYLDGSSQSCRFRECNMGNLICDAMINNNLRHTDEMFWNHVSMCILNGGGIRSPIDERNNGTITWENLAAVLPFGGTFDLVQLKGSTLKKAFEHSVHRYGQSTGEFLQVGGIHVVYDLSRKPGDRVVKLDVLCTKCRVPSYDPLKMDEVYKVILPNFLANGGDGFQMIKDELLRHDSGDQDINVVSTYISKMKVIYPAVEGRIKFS
# T2: CD73 in human serum (human, UniProt P21589 27-574)
# T2 sequence: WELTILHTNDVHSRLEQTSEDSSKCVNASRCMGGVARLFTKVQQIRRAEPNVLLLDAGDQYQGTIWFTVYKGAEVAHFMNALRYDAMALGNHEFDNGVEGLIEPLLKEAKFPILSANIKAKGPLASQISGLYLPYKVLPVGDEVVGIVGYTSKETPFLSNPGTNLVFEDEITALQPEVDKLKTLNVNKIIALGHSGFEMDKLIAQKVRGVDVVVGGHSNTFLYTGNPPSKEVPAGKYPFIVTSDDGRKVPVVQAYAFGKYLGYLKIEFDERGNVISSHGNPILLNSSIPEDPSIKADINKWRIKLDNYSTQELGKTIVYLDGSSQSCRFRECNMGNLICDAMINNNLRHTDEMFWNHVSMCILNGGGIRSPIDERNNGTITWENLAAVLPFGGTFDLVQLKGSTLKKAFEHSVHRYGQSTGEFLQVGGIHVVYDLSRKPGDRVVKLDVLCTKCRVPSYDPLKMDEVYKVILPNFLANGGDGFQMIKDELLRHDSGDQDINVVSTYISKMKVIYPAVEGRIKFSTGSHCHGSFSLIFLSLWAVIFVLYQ
# B1: 2H4+2L1 anti-CD73 antibody (antibody, human IgG1, kappa, V domains shown)
# VH: QIQLVQSGAEVKKPGASVKVSCKASGYTFASYNMYWVRQAPGQRLEWIGYIDPYNGGSSYNQKFKGRVTLTRDKSASTAYMELSSLRSEDTAVYYCARGYNNYKAWFAYWGQGTLVTVSS
# VL: DIQMTQSPSSLSASVGDRVTITCKASQSVTNDVAWYQQKPGKAPKLLIYYASNRYTGVPSRFSGSGYGTDFTFTISSLQPEDIATYYCQQDYSSLTFGQGTKLEIKR
# Legend:
# [1] = biological target: T1, human CD73 expressed on cells; experiment: cell-based or functional assay
# CD73 in human serum = biological target: T2, CD73 in human serum; experiment: cell-based or functional assay
binder,measurement,setting,value
B1,"enzymatic inhibition, in vitro assay on A375 tumor cells (IC50)",[1],0.034 µg/mL
same,"enzymatic inhibition, in vitro assay on MDA-MB231 tumor cells (IC50)",[1],0.127 µg/mL
same,reversion of AMP inhibited T cell proliferation on CD4+ T cells (IC50),[1],0.0081 µg/mL
same,reversion of AMP inhibited T cell proliferation on CD8+ T cells (IC50),[1],0.0077 µg/mL
same,"enzymatic inhibition, in vitro assay on human serum (IC50)",CD73 in human serum,0.0123 µg/mL
